Residue numbers refer to the chain shown, from its start. In names and notes the source's numbering stands.
B1: Bacillus subtilis DSR2 (defense-associated sirtuin 2), wild type, His-tagged, purified alone (enzyme, UniProt P0DXN8 1-1005, looked up)
chain: MVKVDLESKRYGEKLKEVFLMLDNNVVECIKEITESSRNGKLVFFVGAGVSTLSDYPQWWRLVDKYHEELYGSPKKGNYSSDEYLRIPQIFYNVKGEMAFDGILKDFFQVDKPTNPIHDKILAMNPAHVITTNYDNLIDTACWKRGKYFSVISAEEDVANATSSRYLLKVHGDFRKGFKGENVVLKEDDYLNYDQNYPLISNLMKTIIATHTIVFIGYGLGDYNINMLLNWVRKLQKDSFHKPFFIRTDPSPIENETLIYYENKGLRIIDAASLIDSNEYDYLERYSAVMDLLIESQENKFITKDDEVIDYIYGKISPLFALQYIRKIDLKHVFEYDYHFEVNGTVVRHKNKGFGYMERFFELKESCDERSKLSKKQYERFNALFNFFEKNGVICMAKDAGTLNTSIEINSLAYHGKYDVMKKFIEEQSVSIEDDYKKAFFLACLGRWEESYDLYSNIILNSIDESNGCVYYLSQINRYRIYQSITQAVTQFNGLGLLTFGRHYKPFTDEFLARIEREMTNFNIDDLFNGMPFEFQKKYKILEFLSDNQFLYDDTVKLFELTNKVRSEMSEGSYSFGMSSDIVVLLRLYDNLRFLYENCLWSVSFHEFHQYIRNSMSLLIEKAEYERTRDIDELGFSFFGKKSGFFMEYYDFVNISRHFKIDDIKNLERSCSIDKIRFGEQEKIEEYLVGIAEEITKQFSANGMNVVFYTQFISEAKAALYFAKYVKLSEEGLGKIVKALLFYFPERDLDIGKRYVWLERLTKCNELPKSIISIIDDFLVLQAEKHIDQNYSEVSSNGLYSRDYGALIKHFEKNFISKRLSEITLCLTQDKQKQIDFLFKLLPLLSTNAKSHLLSFKSVENINDLMNGIRIGLIDEFTPEHEELIIEYLETRKVNYIVEKEKGIQTFSSNDYMSTFGIWYFLEEINNSKMEEFIGMDDQYDFFVDPENFDYKKFIPSWLKNYNDKLLGKIAGNKHMKHHVIEVLKERVKNSNDKRYLEILMNYFI
notes: Homo-tetramer by cryo-EM and SEC; Cloned into pCDFDuet (BamHI/XhoI); the methods call it His-tagged; also called apo DSR2; apo DSR2 tetramer; source: E. coli BL21(DE3), purified (Ni-NTA, gel filtration on Superdex 200 Increase)
B2: DSR2^H171A, catalytic mutant, co-expressed with His6-SUMO-Tube (enzyme, Bacillus subtilis, UniProt P0DXN8 1-1005, looked up)
chain: B1 chain with H171A
notes: source: E. coli BL21(DE3), co-expressed with His6-SUMO-Tube; in lysate (pull-down) and purified as the complex (Ni-NTA, Hitrap Q, gel filtration)
B3: DSR2^I259S/Y260G (enzyme, Bacillus subtilis, UniProt P0DXN8 1-1005, looked up)
chain: B1 chain with I259S, Y260G
notes: Dimer by SEC; also called I259S/Y260G mutant; mutant with disruption at the tetrameric interface; source: E. coli BL21(DE3), purified by a protocol similar to that of the wild type
B4: Phage tail tube protein from Siphoviridae SPR, His6-SUMO-tagged (natural protein, Siphoviridae SPR (phage))
chain: MKTVIQDTADVYFKRKSDGKLVFTAEAQTASFSQAISEEKLRGGIGNKPLYILKSEKEINLTVKNAFFDLEWLAMTQGETIQEETKVKVFDREHGLIVDDTNKVTLKGKPVSDVTFYNKKGLTYKIAVSTDGTYTIPTAFAAAKDKLTAVYQIEKVGRRLAIKASKFSERYEVEYRTIAYNPDTEEVYSDIYIQFPNVSPSGEFEMSLENGNALAPEIKFEALADTDTDEMAVVIEASRDENTAAPVEDTTGSTQSSDLGGTTE
notes: Purified alone it is a hexamer and filaments of hexamers; in the complex with DSR2^H171A it is a monomer at each corner (4:4); The methods say that His6-SUMO-Tube was purified directly, without removal of the tag; also called His6-SUMO-Tube; HisSUMO-Tube; source: E. coli BL21(DE3); not shown: His6, N-terminal, kept; SUMO, N-terminal, kept

Experiments:
[1] = target: Bacillus subtilis DSR2, wild type, co-expressed with His6-SUMO-DSAD1 (Bacillus subtilis); experiment: cryo-EM structure; DSR2-DSAD1 complex co-expressed and purified, 1.2 mg/mL; 3.49 Å after focus refinement
[2] = target: DSAD1 (DSR anti-defense 1) from Siphoviridae SPbeta, His6-SUMO-tagged, co-expressed with DSR2 (Siphoviridae SPbeta (phage)) (UniProt Q796A8); experiment: as above
[3] = target: the molecule itself; experiment: cryo-EM structure; apo DSR2 tetramer, 1.5 mg/mL, 4.15 Å after focus refinement
[4] = target: B4; experiment: cryo-EM structure; DSR2^H171A-Tube complex co-expressed and purified, 2 mg/mL, 1 mM NAD+ added; 3.58 Å, local refinement 3.08 Å; conditions: both partners purified
[5] = target: the molecule itself; experiment: SEC; oligomeric state of purified DSR2, its mutants and the DSR2^H171A-Tube complex; Superdex 200 Increase 10/300 GL, 25 mM Tris-HCl pH 7.5, 150 mM NaCl
[6] = target: the molecule itself; experiment: SEC + other: cryo-EM 2D class averages; purified His6-SUMO-Tube alone

“Bacillus subtilis DSR2, wild type, co-expressed with His6-SUMO-DSAD1 (enzyme)” showed a stoichiometry N [1] of 4 and a stoichiometry N (DSAD1:DSR2 (2:4)) [2] of 0.5.

With B1 the “stoichiometry N” value [3] was 4.

In the case of B2, the “stoichiometry N” value [4] is reported as 1 DSR2:Tube (4:4) and the “stoichiometry N” value [5] is reported as 4.

B3 was tested, and the “stoichiometry N” value [5] was 2.

In the case of B4, the “stoichiometry N” value [6] is reported as 6.

Reference: publication PMC11087589, “Molecular basis of bacterial DSR2 anti-phage defense and viral immune evasion” (Nature Communications, 2024)
